Reference: patent WO2014037419A1 (dated 2014)

How the values were obtained:
[1] = biological target: T1, Mouse CD74 on cells (C57Black/6 PECs, MC-38, 3LL) (mouse) (UniProt P04441); assay: FACS, PECs of WT mice, APC-labeled MIF 200ng alone (cells without MIF: 22.4)
T1 sequence: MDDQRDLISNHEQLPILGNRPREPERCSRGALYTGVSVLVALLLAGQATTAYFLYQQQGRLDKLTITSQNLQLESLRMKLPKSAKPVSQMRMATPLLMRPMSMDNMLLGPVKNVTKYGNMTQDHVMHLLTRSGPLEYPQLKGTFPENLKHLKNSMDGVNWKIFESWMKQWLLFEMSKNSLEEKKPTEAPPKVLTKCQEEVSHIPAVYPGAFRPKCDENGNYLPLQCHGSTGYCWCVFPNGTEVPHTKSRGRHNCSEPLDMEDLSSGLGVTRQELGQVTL

[2] = biological target: T1, Mouse CD74 on cells (C57Black/6 PECs, MC-38, 3LL) (mouse); assay: FACS, PECs of WT mice, APC-labeled MIF 200ng pre-incubated with the small molecule ISO-1 (20 nM)
[3] = biological target: T1, Mouse CD74 on cells (C57Black/6 PECs, MC-38, 3LL) (mouse); assay: FACS, PECs of MIF-/- mice, APC-labeled MIF 200ng alone (cells without MIF: 25.6)
[4] = biological target: T1, Mouse CD74 on cells (C57Black/6 PECs, MC-38, 3LL) (mouse); assay: FACS, PECs of MIF-/- mice, APC-labeled MIF 200ng pre-incubated with the small molecule ISO-1 (20 nM)
[5] = biological target: T1, Mouse CD74 on cells (C57Black/6 PECs, MC-38, 3LL) (mouse); assay: FACS competition, PECs of MIF-/- mice, APC-labeled MIF 200ng as competitor/tracer plus Nb_49 (5 ug or 0.3 nM)
[6] = biological target: T2, Recombinant human CD74 73-232 (human, UniProt P04233 73-296); assay: BIAcore SPR, biotinylated Nb_49 on streptavidin chip, recombinant human CD74 73-232 at 0.05-500 nM as analyte
T2 construct: Bought from R&D Systems (NP_004346.1); The entry includes the N-terminal hemagglutinin tag; also called R&D systems 3590-CD
T2 sequence: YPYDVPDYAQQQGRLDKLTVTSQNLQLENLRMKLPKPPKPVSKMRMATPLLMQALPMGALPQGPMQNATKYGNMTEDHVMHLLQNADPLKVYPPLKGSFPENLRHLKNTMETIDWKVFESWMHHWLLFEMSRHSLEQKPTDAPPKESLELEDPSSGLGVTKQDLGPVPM

[7] = biological target: T1, Mouse CD74 on cells (C57Black/6 PECs, MC-38, 3LL) (mouse); assay: FACS competition, PECs of WT mice, APC-labeled MIF 200ng as competitor/tracer plus Nb_49 (5 ug or 0.3 nM)

B1: Recombinant human MIF 2-115 (ligand)
chain: PMFIVNTNVPRASVPDGFLSELTQQLAQATGKPPQYIAVHVVPDQLMAFGGSSEPCALCSLHSIGKIGGAQNRSYSKLLCGLLAERLRISPDRVYINYYDMNAASVGWNNSTFA
mean fluorescence intensity of APC-labeled MIF bound to the cells [1]: 64.8
mean fluorescence intensity of APC-labeled MIF bound to the cells [2]: 49.9
mean fluorescence intensity of APC-labeled MIF bound to the cells [3]: 120
mean fluorescence intensity of APC-labeled MIF bound to the cells [4]: 61

B2: NbhCD74n49 (VHH)
VHH: QVQLQESGGGSVQAGGSLRLSCVASGLVYSLKAYDWGWARQAPGKECELVGRIMPNGATVYIDSVKGRFIISRENSNNTVYLQMNSLKFEDTAVYYCARVGDPSGGWCKGQGTQVTVSS
notes: also called Nb_49; NB_49
mean fluorescence intensity of APC-labeled MIF bound to the cells [5]: 69.4
Kd [6]: 5.73 nM
koff [6]: 0.000581 s⁻¹
kon [6]: 102000 M⁻¹ s⁻¹
mean fluorescence intensity of APC-labeled MIF bound to the cells [7]: 46.2
